{"source": "patent US20070254316", "key": {"[1]": {"test_system": "T1, R5-XC1 peptide (free peptide, CQKHHNYLC)", "T1 sequence": "CQKHHNYLC"}, "[2]": {"test_system": "T2, R4-C9 peptide (free peptide, CTLVPHTRC)", "T2 sequence": "CTLVPHTRC"}}}
{"substance": "xPSM (extracellular portion of human PSMA, Tag-xPSM digested with enterokinase, no affinity tags)", "values": [{"measurement": "NAALADase activity (hydrolysis of N-acetyl-L-aspartyl-L-[3,4-3H]glutamate by purified xPSM)", "setting": "[1]", "value": "two selected PSMA binding peptides enhanced, rather than inhibited, enzyme activity in a dose dependant manner"}, {"measurement": "NAALADase activity (hydrolysis of N-acetyl-L-aspartyl-L-[3,4-3H]glutamate by purified xPSM)", "setting": "[2]", "value": "two selected PSMA binding peptides enhanced, rather than inhibited, enzyme activity in a dose dependant manner"}]}
